Key:
Assay in all cases: holdup assay
Design in all cases: key: below the threshold = too weak to quantify, mostly under pKd 3.1 to 4
Inadl_2, Q8NI35 = biological target: Inadl_2, Q8NI35
DFNB31_3, Q9P202 = biological target: T1, DFNB31_3, Q9P202
T1 sequence (Q9P202 811-907, limits assumed, looked up): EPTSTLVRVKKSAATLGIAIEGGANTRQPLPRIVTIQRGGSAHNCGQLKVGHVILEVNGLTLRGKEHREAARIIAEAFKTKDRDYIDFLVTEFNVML

DLG2_3, Q15700 = biological target: DLG2_3, Q15700
Inadl_6, Q8NI35 = biological target: Inadl_6, Q8NI35
Sequence of Inadl_6, Q8NI35 (Q8NI35 1058-1167): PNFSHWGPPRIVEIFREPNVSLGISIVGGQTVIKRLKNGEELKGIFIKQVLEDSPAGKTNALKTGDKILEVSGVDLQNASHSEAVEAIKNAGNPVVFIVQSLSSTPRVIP

TIAM2, Q8IVF5 = biological target: T2, TIAM2, Q8IVF5
T2 sequence (Q8IVF5 885-986, limits assumed, looked up): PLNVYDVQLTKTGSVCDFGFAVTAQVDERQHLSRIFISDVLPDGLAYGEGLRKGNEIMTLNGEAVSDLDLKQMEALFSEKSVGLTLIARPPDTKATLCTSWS

GRIP2_6, Q9C0E4 = biological target: GRIP2_6, Q9C0E4
Sequence of GRIP2_6, Q9C0E4 (Q9C0E4 648-740): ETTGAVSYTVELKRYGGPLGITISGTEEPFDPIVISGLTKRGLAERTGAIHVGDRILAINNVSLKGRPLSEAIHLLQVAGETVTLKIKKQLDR

FRMPD2_3, Q68DX3 = biological target: FRMPD2_3, Q68DX3
Sequence of FRMPD2_3, Q68DX3 (Q68DX3 1073-1166): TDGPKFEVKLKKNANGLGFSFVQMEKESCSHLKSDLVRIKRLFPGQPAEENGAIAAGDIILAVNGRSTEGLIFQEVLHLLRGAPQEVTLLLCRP

RHPN1, Q8TCX5 = biological target: T3, RHPN1, Q8TCX5
T3 sequence (Q8TCX5 508-602, limits assumed, looked up): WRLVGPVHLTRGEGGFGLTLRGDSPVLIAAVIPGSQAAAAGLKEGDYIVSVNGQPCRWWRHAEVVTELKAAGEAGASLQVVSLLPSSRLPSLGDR

GORASP1, Q9BQQ3 = biological target: GORASP1, Q9BQQ3
Sequence of GORASP1, Q9BQQ3 (Q9BQQ3 1-208): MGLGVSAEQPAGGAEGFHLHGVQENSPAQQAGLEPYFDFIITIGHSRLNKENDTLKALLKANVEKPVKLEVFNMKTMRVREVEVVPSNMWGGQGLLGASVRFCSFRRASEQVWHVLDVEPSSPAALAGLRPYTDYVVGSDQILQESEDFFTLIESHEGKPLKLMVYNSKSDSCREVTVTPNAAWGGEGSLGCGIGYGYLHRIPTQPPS

IL16_3, Q14005 = biological target: IL16_3, Q14005
Sequence of IL16_3, Q14005 (Q14005 1107-1207): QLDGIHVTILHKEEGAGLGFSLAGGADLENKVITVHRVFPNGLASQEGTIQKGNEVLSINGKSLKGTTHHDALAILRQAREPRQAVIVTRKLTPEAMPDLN

Inadl_10, Q8NI35 = biological target: Inadl_10, Q8NI35
Sequence of Inadl_10, Q8NI35 (Q8NI35 1673-1763): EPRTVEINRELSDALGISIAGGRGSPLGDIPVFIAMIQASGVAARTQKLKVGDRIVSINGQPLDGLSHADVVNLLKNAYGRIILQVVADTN

NHERF3_3, Q5T2W1 = biological target: T4, NHERF3_3, Q5T2W1
T4 sequence (Q5T2W1 238-333, limits assumed, looked up): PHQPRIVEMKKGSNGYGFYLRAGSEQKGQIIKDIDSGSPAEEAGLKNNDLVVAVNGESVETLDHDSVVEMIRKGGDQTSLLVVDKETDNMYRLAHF

SNTA1, Q13424 = biological target: T5, SNTA1, Q13424
T5 sequence (Q13424 82-180, limits assumed, looked up): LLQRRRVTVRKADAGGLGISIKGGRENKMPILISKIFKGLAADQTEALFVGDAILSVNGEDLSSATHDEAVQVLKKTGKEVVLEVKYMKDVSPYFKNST

GRIP2_4, Q9C0E4 = biological target: GRIP2_4, Q9C0E4
Sequence of GRIP2_4, Q9C0E4 (Q9C0E4 446-548): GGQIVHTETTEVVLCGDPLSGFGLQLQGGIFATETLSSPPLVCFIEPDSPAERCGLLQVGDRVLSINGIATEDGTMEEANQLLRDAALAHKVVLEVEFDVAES

MAGI3_2, Q5TCQ9 = biological target: MAGI3_2, Q5TCQ9
Sequence of MAGI3_2, Q5TCQ9 (Q5TCQ9 398-503): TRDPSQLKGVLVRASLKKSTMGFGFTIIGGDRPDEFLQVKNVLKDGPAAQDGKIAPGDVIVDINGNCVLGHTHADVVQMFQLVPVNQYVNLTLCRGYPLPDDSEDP

LRRC7, Q96NW7 = biological target: T6, LRRC7, Q96NW7
T6 sequence (Q96NW7 1440-1537, limits assumed, looked up): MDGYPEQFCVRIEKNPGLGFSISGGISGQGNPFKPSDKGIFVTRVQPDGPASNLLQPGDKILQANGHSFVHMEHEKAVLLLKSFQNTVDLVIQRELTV

CARD11, Q9BXL7 = biological target: T7, CARD11, Q9BXL7
T7 sequence (Q9BXL7 662-765, limits assumed, looked up): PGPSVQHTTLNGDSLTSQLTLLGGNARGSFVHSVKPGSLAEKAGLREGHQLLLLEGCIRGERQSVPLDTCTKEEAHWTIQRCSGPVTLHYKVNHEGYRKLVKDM

DLG1_3, Q12959 = biological target: DLG1_3, Q12959
Sequence of DLG1_3, Q12959 (Q12959 457-571): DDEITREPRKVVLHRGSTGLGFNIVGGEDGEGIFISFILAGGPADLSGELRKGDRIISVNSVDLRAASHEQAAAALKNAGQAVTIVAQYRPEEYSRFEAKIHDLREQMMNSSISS

GRIP1_7, Q9Y3R0 = biological target: T8, GRIP1_7, Q9Y3R0
T8 sequence (Q9Y3R0 999-1096, limits assumed, looked up): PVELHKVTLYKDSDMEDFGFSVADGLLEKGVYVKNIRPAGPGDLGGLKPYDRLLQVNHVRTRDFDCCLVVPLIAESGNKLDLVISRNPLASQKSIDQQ

HTRA3, P83110 = biological target: T9, HTRA3, P83110
T9 sequence (P83110 354-453, limits assumed, looked up): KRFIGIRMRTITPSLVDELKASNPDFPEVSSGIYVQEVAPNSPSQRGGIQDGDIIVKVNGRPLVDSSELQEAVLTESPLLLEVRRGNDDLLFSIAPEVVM

GRIP1_4, Q9Y3R0 = biological target: T10, GRIP1_4, Q9Y3R0
T10 sequence (Q9Y3R0 467-571, limits assumed, looked up): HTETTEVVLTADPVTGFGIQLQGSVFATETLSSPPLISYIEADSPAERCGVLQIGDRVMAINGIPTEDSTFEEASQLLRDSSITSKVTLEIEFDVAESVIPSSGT

SCRIB_1, Q14160 = biological target: SCRIB_1, Q14160
Sequence of SCRIB_1, Q14160 (Q14160 718-814): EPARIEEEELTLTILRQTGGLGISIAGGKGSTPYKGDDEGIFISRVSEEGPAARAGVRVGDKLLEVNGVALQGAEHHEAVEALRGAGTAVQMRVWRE

SNX27, Q96L92 = biological target: SNX27, Q96L92
GRASP, Q7Z6J2 = biological target: GRASP, Q7Z6J2
Sequence of GRASP, Q7Z6J2 (Q7Z6J2 96-193): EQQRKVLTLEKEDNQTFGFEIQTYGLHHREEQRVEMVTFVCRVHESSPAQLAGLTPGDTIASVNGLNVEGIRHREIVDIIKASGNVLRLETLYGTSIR

SNTB1, Q13884 = biological target: T11, SNTB1, Q13884
T11 sequence (Q13884 107-205, limits assumed, looked up): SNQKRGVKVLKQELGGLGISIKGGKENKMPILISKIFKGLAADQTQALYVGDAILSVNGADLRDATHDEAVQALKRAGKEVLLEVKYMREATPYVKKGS

GOPC, Q9HD26 = conditions: plain residues with an end cap or a label only (N-terminal biotin on a linker: ado-ado)
[1] = plain residues with an end cap or a label only (N-terminal biotin on a linker: ado-ado)
[2] = modified: phospho on T at position -2 from the C-terminal residue

Measured: pKd

Sequence of Inadl_2, Q8NI35 (Q8NI35 238-335): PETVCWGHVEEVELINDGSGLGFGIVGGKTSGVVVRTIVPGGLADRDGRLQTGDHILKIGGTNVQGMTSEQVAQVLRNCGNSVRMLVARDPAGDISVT

KRPEMTSSSV [MUC3A, MUC3B, Q02505;Q9H195]
3.88: DLG2_3, Q15700; [1]
1.75: CARD11, Q9BXL7; [1]
1.96: TIAM2, Q8IVF5; [1]
below the threshold: Inadl_2, Q8NI35; [1] | DFNB31_3, Q9P202; [1] | Inadl_6, Q8NI35; [1] | GRIP2_6, Q9C0E4; [1] | FRMPD2_3, Q68DX3; [1] | GORASP1, Q9BQQ3; [1] | IL16_3, Q14005; [1] | Inadl_10, Q8NI35; [1] | NHERF3_3, Q5T2W1; [1] | GRIP2_4, Q9C0E4; [1] | LRRC7, Q96NW7; [1] | DLG1_3, Q12959; [1] | GRIP1_7, Q9Y3R0; [1] | HTRA3, P83110; [1]
1.76: SNTA1, Q13424; [1]
3.84: RHPN1, Q8TCX5; [1]
3.86: MAGI3_2, Q5TCQ9; [1]

SSRTRRETQL [HPV16-E6_-2P, P03126]
below the threshold: Inadl_2, Q8NI35; [2] | DLG2_3, Q15700; [2] | Inadl_6, Q8NI35; [2] | TIAM2, Q8IVF5; [2] | GRIP2_6, Q9C0E4; [2] | FRMPD2_3, Q68DX3; [2] | GRIP1_4, Q9Y3R0; [2] | SCRIB_1, Q14160; [2] | SNX27, Q96L92; [2] | RHPN1, Q8TCX5; [2] | GORASP1, Q9BQQ3; [2] | IL16_3, Q14005; [2] | Inadl_10, Q8NI35; [2] | NHERF3_3, Q5T2W1; [2] | SNTA1, Q13424; [2] | GRASP, Q7Z6J2; [2] | GRIP2_4, Q9C0E4; [2] | MAGI3_2, Q5TCQ9; [2] | LRRC7, Q96NW7; [2] | SNTB1, Q13884; [2] | CARD11, Q9BXL7; [2] | DLG1_3, Q12959; [2] | GRIP1_7, Q9Y3R0; [2] | HTRA3, P83110; [2]
3.89: DFNB31_3, Q9P202; [2]

DTKNYKQTSV [CRIPT, Q9P021]
4.74: SNTA1, Q13424; [1]
4.72: MAGI3_2, Q5TCQ9; [1]
3.92: LRRC7, Q96NW7; [1]
4.88: SCRIB_1, Q14160; [1]
3.87: GOPC, Q9HD26
4.11: GRASP, Q7Z6J2; [1]
5.29: DLG2_3, Q15700; [1]
3.52: GRIP2_6, Q9C0E4; [1]
4.73: SNTB1, Q13884; [1]
5.33: SNX27, Q96L92; [1]
below the threshold: Inadl_2, Q8NI35; [1] | DFNB31_3, Q9P202; [1] | Inadl_6, Q8NI35; [1] | TIAM2, Q8IVF5; [1] | FRMPD2_3, Q68DX3; [1] | GRIP1_4, Q9Y3R0; [1] | GORASP1, Q9BQQ3; [1] | IL16_3, Q14005; [1] | Inadl_10, Q8NI35; [1] | NHERF3_3, Q5T2W1; [1] | GRIP2_4, Q9C0E4; [1] | CARD11, Q9BXL7; [1] | GRIP1_7, Q9Y3R0; [1] | HTRA3, P83110; [1]
5.26: DLG1_3, Q12959; [1]
4.07: RHPN1, Q8TCX5; [1]

KSRVAFFEEL [NF2, P35240;P35240-1]
4.06: GORASP1, Q9BQQ3; [1]
4.08: GRASP, Q7Z6J2; [1]
below the threshold: Inadl_2, Q8NI35; [1] | DFNB31_3, Q9P202; [1] | DLG2_3, Q15700; [1] | TIAM2, Q8IVF5; [1] | FRMPD2_3, Q68DX3; [1] | GRIP1_4, Q9Y3R0; [1] | RHPN1, Q8TCX5; [1] | IL16_3, Q14005; [1] | Inadl_10, Q8NI35; [1] | NHERF3_3, Q5T2W1; [1] | SNTA1, Q13424; [1] | MAGI3_2, Q5TCQ9; [1] | CARD11, Q9BXL7; [1] | HTRA3, P83110; [1]

IDESKKEWLI [CNTNAP2, Q9UHC6]
4.25: GORASP1, Q9BQQ3; [1]
3.52: DFNB31_3, Q9P202; [1]
4.67: Inadl_2, Q8NI35; [1]
below the threshold: Inadl_6, Q8NI35; [1] | GOPC, Q9HD26 | GRIP1_4, Q9Y3R0; [1] | SCRIB_1, Q14160; [1] | SNX27, Q96L92; [1] | RHPN1, Q8TCX5; [1] | IL16_3, Q14005; [1] | Inadl_10, Q8NI35; [1] | NHERF3_3, Q5T2W1; [1] | SNTA1, Q13424; [1] | GRASP, Q7Z6J2; [1] | GRIP2_4, Q9C0E4; [1] | LRRC7, Q96NW7; [1] | SNTB1, Q13884; [1] | CARD11, Q9BXL7; [1] | DLG1_3, Q12959; [1] | GRIP1_7, Q9Y3R0; [1]
4.15: HTRA3, P83110; [1]
3.81: TIAM2, Q8IVF5; [1]
4.06: MAGI3_2, Q5TCQ9; [1]
3.51: FRMPD2_3, Q68DX3; [1]
3.57: DLG2_3, Q15700; [1] | GRIP2_6, Q9C0E4; [1]

SRSVVESDEL [MYPN, Q86TC9]
4.14: GRASP, Q7Z6J2; [1]
below the threshold: Inadl_2, Q8NI35; [1] | DFNB31_3, Q9P202; [1] | DLG2_3, Q15700; [1] | Inadl_6, Q8NI35; [1] | TIAM2, Q8IVF5; [1] | FRMPD2_3, Q68DX3; [1] | GOPC, Q9HD26 | GRIP1_4, Q9Y3R0; [1] | RHPN1, Q8TCX5; [1] | GORASP1, Q9BQQ3; [1] | IL16_3, Q14005; [1] | Inadl_10, Q8NI35; [1] | NHERF3_3, Q5T2W1; [1] | GRIP2_4, Q9C0E4; [1] | MAGI3_2, Q5TCQ9; [1] | LRRC7, Q96NW7; [1] | SNTB1, Q13884; [1] | CARD11, Q9BXL7; [1] | DLG1_3, Q12959; [1] | GRIP1_7, Q9Y3R0; [1] | HTRA3, P83110; [1]
3.6: SNTA1, Q13424; [1]
3.95: GRIP2_6, Q9C0E4; [1]
4.17: SNX27, Q96L92; [1]
3.49: SCRIB_1, Q14160; [1]

Source: paper PMC9482650, “Quantitative fragmentomics allow affinity mapping of interactomes” (Nature Communications, 2022)
